B1: wildtype TBK1 (TANK-binding kinase 1), mCitrine-Protein A fusion [not stated] / TRAF family member-associated NF-kB activator (TANK), NanoLuc-tagged [not stated] (parent complex)
chain 1: MQSTSNHLWLLSDILGQGATANVFRGRHKKTGDLFAIKVFNNISFLRPVDVQMREFEVLKKLNHKNIVKLFAIEEETTTRHKVLIMEFCPCGSLYTVLEEPSNAYGLPESEFLIVLRDVVGGMNHLRENGIVHRDIKPGNIMRVIGEDGQSVYKLTDFGAARELEDDEQFVSLYGTEEYLHPDMYERAVLRKDHQKKYGATVDLWSIGVTFYHAATGSLPFRPFEGPRRNKEVMYKIITGKPSGAISGVQKAENGPIDWSGDMPVSCSLSRGLQVLLTPVLANILEADQEKCWGFDQFFAETSDILHRMVIHVFSLQQMTAHKIYIHSYNTATIFHELVYKQTKIISSNQELIYEGRRLVLEPGRLAQHFPKTTEENPIFVVSREPLNTIGLIYEKISLPKVHPRYDLDGDASMAKAITGVVCYACRIASTLLLYQELMRKGIRWLIELIKDDYNETVHKKTEVVITLDFCIRNIEKTVKVYEKLMKINLEAAELGEISDIHTKLLRLSSSQGTIETSLQDIDSRLSPGGSLADAWAHQEGTHPKDRNVEKLQVLLNCMTEIYYQFKKDKAERRLAYNEEQIHKFDKQKLYYHATKAMTHFTDECVKKYEAFLNKSEEWIRKMLHLRKQLLSLTNQCFDIEEEVSKYQEYTNELQETLPQKMFTASSGIKHTMTPIYPSSNTLVEMTLGMKKLKEEMEGVVKELAENNHILERFGSLTMDGGLRNVDCL
chain 2: MDKNIGEQLNKAYEAFRQACMDRDSAVKELQQKTENYEQRIREQQEQLSLQQTIIDKLKSQLLLVNSTQDNNYGCVPLLEDSETRKNNLTLDQPQDKVISGIAREKLPKVRRQEVSSPRKETSARSLGSPLLHERGNIEKTFWDLKEEFHKICMLAKAQKDHLSKLNIPDTATETQCSVPIQCTDKTDKQEALFKPQAKDDINRGAPSITSVTPRGLCRDEEDTSFESLSKFNVKFPPMDNDSTFLHSTPERPGILSPATSEAVCQEKFNMEFRDNPGNFVKTEETLFEIQGIDPIASAIQNLKTTDKTKPSNLVNTCIRTTLDRAACLPPGDHNALYVNSFPLLDPSDAPFPSLDSPGKAIRGPQQPIWKPFPNQDSDSVVLSGTDSELHIPRVCEFCQAVFPPSITSRGDFLRHLNSHFNGET

Variants of B1 are the subject of the first experiment. In words: LuTHy-BRET; live HEK293 cells; parent: 1; read off a plot.
For chain 1 E696K, the ratio to parent is ~0.99.
Turning to chain 1 R47H, the ratio to parent was ~1.

The next experiment covers variants of B1. In words: LuTHy-BRET donor saturation assay; live HEK293 cells; read at Acceptor:Donor = 4 (highest point of the curve); parent: 0.068; read off a plot. (Bioluminescence resonance energy transfer reports proximity on the nanometre scale.)
Take chain 1 E696K: the response was ~0.062.

These data come from paper PMC10959724 (2024).
